The results in this text go back to patent US6407222B1, “Cloning and expression of dog gonadotropin releasing hormone receptor” (Merck & Co., Inc., priority 1999, dated 2002).

Bounds are passed on as bounds.

Assay [1] has as its target dog gonadotropin-releasing hormone (GnRH) receptor (dog) (UniProt Q9MZI6). In words: whole cell radioligand binding assay on CHO-K1 clone 1B2-1F9.
Assay [2] has the same target. In words: whole cell radioligand binding assay on transfected CHO-K1 clones (seven of 71 clones).
The target in a further assay is T1, dog GnRH receptor (Canis lupus familiaris, UniProt Q9MZI6).
T1 construct: The full-length coding cDNA of the dog GnRH receptor was cloned from dog pituitary mRNA by RT-PCR; expressed in transfected cells
T1 sequence (Q9MZI6 1-327): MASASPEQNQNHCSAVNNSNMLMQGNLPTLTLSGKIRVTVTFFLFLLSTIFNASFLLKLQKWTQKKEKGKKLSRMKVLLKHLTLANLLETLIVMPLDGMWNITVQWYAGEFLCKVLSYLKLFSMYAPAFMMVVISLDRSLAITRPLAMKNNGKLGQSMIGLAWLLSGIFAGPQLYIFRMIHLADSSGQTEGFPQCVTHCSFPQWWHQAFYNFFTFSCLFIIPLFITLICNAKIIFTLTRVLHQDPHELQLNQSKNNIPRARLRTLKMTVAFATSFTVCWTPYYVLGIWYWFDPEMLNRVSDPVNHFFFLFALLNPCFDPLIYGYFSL
In words: Phosphoinositide (PI) turnover assay in 1B2-1F9 cells (CHO-K1 stably expressing the dog GnRH receptor). Format: cell-based. The note with it: 1B2-1F9 CHO-K1 clone expressing dog GnRH receptor; 37° C., 1 hour; FIG. 5; read-out: EC50 of GnRH-stimulated PI turnover.

In assay [3] the target is dog gonadotropin-releasing hormone (GnRH) receptor (dog) (UniProt Q9MZI6). In words: cell-based or functional assay.

Method for dog GnRH receptor: The coding cDNA of the dog GnRH receptor was subcloned into a polycistronic expression vector pIRES1.neo (Clontech Laboratories, Palo Alto, Calif.) to generate cells stably expressing the receptor. The plasmid DNA of pIRES1.neo-dog-GnRHR was transfected into CHO-K1 cells by lipofectin (GIBCO-BRL, Grand Island, N.Y.) following the manufacturer's instruction. Transfection was carried out overnight and the cells were split 48 hours later. G418 at 1 mg/ml was added 24 hours after splitting, and its concentration was increased to 2 mg/ml in 2-3 days. After 10 days selection by G418, colonies were picked and transferred to 24-well plates. The clones that expressed the dog GnRH receptor were screened by a whole cell binding assay using a radiolabeled peptide agonist of GnRH, 5-(^125Iodo-Tyr)-Buserelin (Woods Assay, Portland, Oreg.). […] After single cell isolation, the membrane from this clone was prepared, and the membrane binding assay was performed using ^125I-buserelin. […] The GnRH-stimulated PI turnover was also performed.
1B2-1F9 cells are functionally coupled to phospholipase C. […] The eluate was then counted in a scintillation counter.

Turning to 5-(125Iodo-Tyr)-Buserelin (peptide), the specific binding activity, fold above the background in assay [1] was over 10 fold. In addition, in assay [2], the specific binding activity, fold above the non-specific binding was found to be 5 fold.

The EC50 is the midpoint of the concentration-response curve. For `CC(C)C[C@H](NC(=O)CNC(=O)[C@H](Cc1ccc(O)cc1)NC(=O)[C@H](CO)NC(=O)[C@H](Cc1c[nH]c2ccccc12)NC(=O)[C@H](Cc1cnc[nH]1)NC(=O)[C@@H]1CCC(=O)N1)C(=O)N[C@@H](CCCNC(=N)N)C(=O)N1CCC[C@H]1C(=O)NCC(N)=O` [GnRH, Gonadotropin-releasing hormone], at dog GnRH receptor, the EC50 lay within 0.3 to 0.4 nM.

In assay [3], “Gonadotropin-releasing hormone (GnRH) (from UniProt P01148 24-92) (ligand)” returned an EC50 of GnRH-stimulated PI turnover of 0.3 to 0.4 nM.
